Assay results taken from patent US20090092614A1 (Biogen, published 2009).
Read-outs that look alike come from different tables or passages of the source.

Key:
human INSR(28-956)-His10 [1] = target: T1, human INSR(28-956)-His10 (human, UniProt P06213 28-956); assay: ELISA on plate-coated rh-INSR, goat anti-human kappa-HRPO
T1 construct: range 28-956; Bought (R&D Systems); also called rh-INSR (R&D 1544-IR); INSR-His10
Protocol: (§1) ELISA assays were performed to determine specific binding of the Fab fragment antibodies to soluble IGF-1R over the insulin receptor. […] Color development was stopped by addition of 4NH₂SO₄ and optical density is measured at 450 nm using a Molecular Devices plate reader and binding curves are generated.

[2] = target: T2, human IGF-1R(1-902)-His10 (human, UniProt P08069 31-932); assay: ELISA on plate-coated rh-IGF-1R, goat anti-human kappa-HRPO
T2 construct: Bought (R&D Systems); also called hIGF-1R-His10; IGF-1R-His
T2 sequence (P08069 other isoform, or with tags, fused parts or gaps): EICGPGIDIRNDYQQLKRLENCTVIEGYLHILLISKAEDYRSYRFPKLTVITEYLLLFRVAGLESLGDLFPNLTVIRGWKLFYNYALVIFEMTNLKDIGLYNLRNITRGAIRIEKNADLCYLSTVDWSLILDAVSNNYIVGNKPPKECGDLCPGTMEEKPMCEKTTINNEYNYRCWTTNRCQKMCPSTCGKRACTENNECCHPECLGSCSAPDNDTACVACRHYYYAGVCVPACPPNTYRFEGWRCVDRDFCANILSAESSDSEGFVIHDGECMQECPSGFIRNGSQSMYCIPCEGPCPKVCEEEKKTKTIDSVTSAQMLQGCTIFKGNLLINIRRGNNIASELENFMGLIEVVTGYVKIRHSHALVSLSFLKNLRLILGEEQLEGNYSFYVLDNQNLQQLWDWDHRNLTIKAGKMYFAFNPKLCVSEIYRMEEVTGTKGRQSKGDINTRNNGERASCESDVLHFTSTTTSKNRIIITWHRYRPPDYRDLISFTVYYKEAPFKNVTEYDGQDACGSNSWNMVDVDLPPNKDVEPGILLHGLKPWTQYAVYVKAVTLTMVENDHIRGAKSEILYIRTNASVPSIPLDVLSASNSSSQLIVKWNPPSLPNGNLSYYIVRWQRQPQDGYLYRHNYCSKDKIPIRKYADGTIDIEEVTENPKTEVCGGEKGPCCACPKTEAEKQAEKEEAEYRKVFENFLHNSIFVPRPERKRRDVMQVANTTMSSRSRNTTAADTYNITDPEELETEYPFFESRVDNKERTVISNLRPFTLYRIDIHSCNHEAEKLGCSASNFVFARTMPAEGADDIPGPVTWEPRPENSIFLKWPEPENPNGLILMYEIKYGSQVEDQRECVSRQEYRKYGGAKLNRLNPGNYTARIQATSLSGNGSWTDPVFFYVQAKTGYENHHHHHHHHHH
Protocol: as §1

human INSR(28-956)-His10 [3] = target: T1, human INSR(28-956)-His10; assay: ELISA, rh-INSR coated
Protocol: as §1

sIGF-1R(1-903) [4] = target: T3, sIGF-1R(1-903) (human, UniProt P08069 31-933); assay: ITC, 5 °C
T3 construct: also called soluble recombinant human IGF-1R ectodomain
T3 sequence (P08069 31-933): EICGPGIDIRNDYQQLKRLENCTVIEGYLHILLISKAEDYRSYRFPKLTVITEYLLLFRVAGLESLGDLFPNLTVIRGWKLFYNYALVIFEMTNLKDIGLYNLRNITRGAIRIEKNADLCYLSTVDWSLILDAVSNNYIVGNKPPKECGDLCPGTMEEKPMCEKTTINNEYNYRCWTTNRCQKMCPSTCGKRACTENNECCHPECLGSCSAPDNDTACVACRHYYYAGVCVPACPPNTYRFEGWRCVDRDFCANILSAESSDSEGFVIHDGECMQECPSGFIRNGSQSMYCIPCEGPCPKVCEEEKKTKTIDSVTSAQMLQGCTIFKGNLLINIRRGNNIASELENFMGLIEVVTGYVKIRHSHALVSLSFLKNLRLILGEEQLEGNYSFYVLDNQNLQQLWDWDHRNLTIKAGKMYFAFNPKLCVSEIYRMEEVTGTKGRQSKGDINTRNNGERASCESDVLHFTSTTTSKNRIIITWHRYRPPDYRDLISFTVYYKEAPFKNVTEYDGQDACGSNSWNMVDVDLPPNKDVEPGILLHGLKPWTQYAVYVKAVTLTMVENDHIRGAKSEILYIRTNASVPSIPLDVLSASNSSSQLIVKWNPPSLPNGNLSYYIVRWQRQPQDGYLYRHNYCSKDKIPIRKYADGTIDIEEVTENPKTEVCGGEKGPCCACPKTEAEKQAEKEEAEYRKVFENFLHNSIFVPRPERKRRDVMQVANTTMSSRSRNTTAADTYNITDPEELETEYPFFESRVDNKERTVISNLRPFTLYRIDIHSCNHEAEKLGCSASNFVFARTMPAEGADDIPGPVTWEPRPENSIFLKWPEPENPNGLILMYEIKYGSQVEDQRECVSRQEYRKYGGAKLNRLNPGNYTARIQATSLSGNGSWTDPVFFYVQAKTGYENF
Protocol: (§2) These protein solutions were adjusted to the concentrations listed above by dialyzing in PBS. ITC experiments were performed on an ITC200 microcalorimeter (MicroCal, LLC). […] A four minute equilibration period was used between all injections with an initial delay of 60 seconds. […] The lower limit of the protein concentrations capable of generating sufficient signal by calorimetry to measure a change in heat was ˜2-4 micromolar protein.

sIGF-1R(1-903) [5] = target: T3, sIGF-1R(1-903); assay: ITC, 15 °C
Protocol: as §2

sIGF-1R(1-903) [6] = target: T3, sIGF-1R(1-903); assay: ITC, 25 °C
Protocol: as §2

sIGF-1R(1-903) [7] = target: T3, sIGF-1R(1-903); assay: ITC, 37 °C
Protocol: as §2

[8] = target: human IGF-1R (full length, on cells) (human, UniProt P08069 31-740; P08069 741-1367); assay: cell-based or functional assay
human IGF-1R(1-903)-Fc [9] = target: T4, human IGF-1R(1-903)-Fc (human, UniProt P08069 31-933); assay: blocking ELISA, competitor 320 nM IGF-1
T4 construct: Made by Biogen Idec; also called hIGF-1R-Fc; IGF-1R-Fc
T4 sequence (P08069 31-933): as above

human IGF-1R(1-903)-Fc [10] = target: T4, human IGF-1R(1-903)-Fc; assay: blocking ELISA, competitor 640 nM IGF-2
hIGF-1R-Fc mutant SD015 [11] = target: T5, hIGF-1R-Fc mutant SD015 (human, UniProt P08069 31-933); assay: SPR, Fab over captured mutant
T5 construct: Positions count without the signal peptide; also called H464E; not shown: human IgG1 Fc tag
T5 sequence (P08069 other isoform, or with tags, fused parts or gaps mutant): as the sequence (P08069 31-933) above, with H464E counted along it

hIGF-1R-Fc mutant SD015 [12] = target: T5, hIGF-1R-Fc mutant SD015; assay: KD grade of mutant hIGF-1R-Fc; S = binding to antibody was ablated by mutation
hIGF-1R-Fc mutant SD110 = target: T6, hIGF-1R-Fc mutant SD110 (human, UniProt P08069 31-933); assay: as above
T6 construct: build as m36 with the substitution; also called E533H; not shown: C-terminal human IgG1 Fc tag

hIGF-1R-Fc mutant SD113 = target: T7, hIGF-1R-Fc mutant SD113 (human, UniProt P08069 31-933); assay: as above
T7 construct: build as m36 with the substitutions; also called E570A I571T

hIGF-1R-Fc mutant SD102 = target: T8, hIGF-1R-Fc mutant SD102 (human, UniProt P08069 31-933); assay: as above
T8 construct: build as m36 with the substitutions; also called E459A S460A

hIGF-1R-Fc mutant SD103 = target: T9, hIGF-1R-Fc mutant SD103 (human, UniProt P08069 31-933); assay: as above
T9 construct: build as m36 with the substitutions; also called D461A V462T

hIGF-1R-Fc mutant SD104 = target: T10, hIGF-1R-Fc mutant SD104 (human, UniProt P08069 31-933); assay: as above
T10 construct: build as m36 with the substitution; also called H464A; not shown: C-terminal human IgG1-Fc tag and its junction

hIGF-1R-Fc mutant SD108 = target: T11, hIGF-1R-Fc mutant SD108 (human, UniProt P08069 31-933); assay: as above
T11 construct: build as m36 with the substitution; also called H480E; not shown: C-terminal human IgG1-Fc tag and its junction

hIGF-1R-Fc mutant SD109 = target: T12, hIGF-1R-Fc mutant SD109 (human, UniProt P08069 31-933); assay: as above
T12 construct: build as m36 with the substitutions; also called Y482A R483W; not shown: C-terminal human IgG1-Fc tag and its junction

human IGF-1R(1-903)-Fc [13] = target: T4, human IGF-1R(1-903)-Fc; assay: ELISA on plate-coated soluble IGF-1R-Fc, goat anti-human kappa-HRP
Protocol: (§3) The absorbance was measured at 450 nm, background 540 nm for TMB using the Molecular Devices plate reader. Data was analyzed using the SOFTMAX PRO software package version 4.3 LS (Molecular Devices Corp.).

human IGF-1R(1-903)-Fc [14] = target: T4, human IGF-1R(1-903)-Fc; assay: competition ELISA: biotinylated hIGF-1R-Fc on streptavidin plate, M14-G11 titrated in 20 nM human IGF-1 His (blocked ligand)
human IGF-1R(1-903)-Fc [15] = target: T4, human IGF-1R(1-903)-Fc; assay: competition ELISA: biotinylated hIGF-1R-Fc on streptavidin plate, M14-G11 titrated in 320 nM human IGF-1 His (blocked ligand)
human IGF-1R(1-903)-Fc [16] = target: T4, human IGF-1R(1-903)-Fc; assay: competition ELISA: biotinylated hIGF-1R-Fc on streptavidin plate, antibody titrated in 320 nM human IGF-1 His (blocked ligand), anti-His-HRP detection
hIGF-1R-Fc mutant SD008 = target: T13, hIGF-1R-Fc mutant SD008 (human, UniProt P08069 31-933); assay: SPR
T13 construct: Positions count without the signal peptide; also called S257F; not shown: human IgG1 Fc tag

hIGF-1R-Fc mutant SD012 = target: T14, hIGF-1R-Fc mutant SD012 (human, UniProt P08069 31-933); assay: SPR
T14 construct: Positions count without the 30-residue signal peptide; also called E303G; not shown: human IgG1 Fc tag

human IGF-1R(1-903)-Fc [17] = target: T4, human IGF-1R(1-903)-Fc; assay: ELISA on plate-coated soluble IGF-1R-Fc, goat anti-human kappa-HRP; remark: listed apart in the source
Protocol: as §3

T1 sequence (P06213 other isoform, or with tags, fused parts or gaps limits assumed): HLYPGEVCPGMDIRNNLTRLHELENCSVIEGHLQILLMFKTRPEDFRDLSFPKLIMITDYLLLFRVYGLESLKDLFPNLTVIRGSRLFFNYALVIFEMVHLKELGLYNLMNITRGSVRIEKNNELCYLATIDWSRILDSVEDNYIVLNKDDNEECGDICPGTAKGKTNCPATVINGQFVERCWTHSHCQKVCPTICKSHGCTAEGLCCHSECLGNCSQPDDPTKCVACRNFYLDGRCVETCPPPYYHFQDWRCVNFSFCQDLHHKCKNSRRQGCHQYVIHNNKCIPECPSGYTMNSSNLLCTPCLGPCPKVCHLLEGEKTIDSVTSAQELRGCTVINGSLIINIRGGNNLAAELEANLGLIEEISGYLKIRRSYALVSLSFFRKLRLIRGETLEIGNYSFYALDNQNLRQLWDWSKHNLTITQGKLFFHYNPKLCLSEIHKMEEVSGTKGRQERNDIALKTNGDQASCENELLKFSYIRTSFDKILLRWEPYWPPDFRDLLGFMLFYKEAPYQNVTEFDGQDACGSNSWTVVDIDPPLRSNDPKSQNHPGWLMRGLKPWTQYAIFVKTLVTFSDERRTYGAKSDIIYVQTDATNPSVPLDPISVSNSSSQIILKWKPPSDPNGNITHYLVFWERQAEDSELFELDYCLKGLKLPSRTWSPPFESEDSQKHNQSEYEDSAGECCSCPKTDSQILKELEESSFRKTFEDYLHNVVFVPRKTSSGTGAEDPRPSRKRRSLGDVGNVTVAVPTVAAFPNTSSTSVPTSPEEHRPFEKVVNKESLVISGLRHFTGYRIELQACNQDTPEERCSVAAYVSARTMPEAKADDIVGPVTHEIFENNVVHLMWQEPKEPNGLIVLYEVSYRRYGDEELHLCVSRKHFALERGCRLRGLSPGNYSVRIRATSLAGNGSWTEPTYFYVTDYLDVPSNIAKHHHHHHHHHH

B1: M14-B01 Fab (Fab, V domains shown)
VH: EVQLLESGGGLVQPGGSLRLSCAASGFTFSNYHMAWVRQAPGKGLEWVSVISPTGGRTTYADSVKGRFTISRDNSKNTLYLQMNSLRAEDTATYYCARAGYSYGYGYFDYWGQGTLVTVSS
VL: DIQMTQFPATLSVSPGERATLSCRASQSVMRNLAWYQQKPGQPPRLLIYGASKRATGIPARFSGSGSGTAFTLTISNLEPEDFAVYYCHQRSTWPLGTFGPGTKLEAK
notes: Human kappa Fab from a phage library
B1 was tested, and the binding result (human INSR(28-956)-His10 [1]) was “no binding” and the “EC50 (read off the curve)” value [2] was about 5 nM.

B2: M12-G04 Fab (Fab, V domains shown)
VH: EVQLLESGGGLVQPGGSLRLSCAASGFTFSKYTMHWVRQAPGKGLEWVSSIVSSGGWTDYADSVKGRFTISRDNSKNTLYLQMNSLRAEDTAVYYCARDRSIAAAGTGWSVSFVDWFDPWGQGTLVTVSS
VL: DIQMTQSPLSLSASVGDRVTITCRASQSINGYLNWYQQKPGKAPNLLIYATSSLQSGVPSRFSGSGSGTDFTLTISSLQPEDFATYYCQQSYSTPPYTFGQGTKLEIK
notes: as for B1
B2: no binding (tested: about 5000 nM (baseline markers overlap)) (human INSR(28-956)-His10 [1]).

B3: M12-E01 Fab (Fab, V domains shown)
VH: EVQLLESGGGLVQPGGSLRLSCAASGFTFSPYSMLWVRQAPGKGLEWVSSIGSSGGSTRYADSVKGRFTISRDNSKNTLYLQMNSLRAEDTAMYYCARVRGILHYDILIGRNLYYYYMDVWGKGTTVTVSS
VL: QYELTQPPSVSEAPRQRVTISCSGSSSNIGNNAINWYQQLPGKPPKLLIYYDDLLPSGVSDRFSGSKSGTSGSLAISGLQSEDEADYYCAAWDDNLNGVIFGGGTKLTVL
notes: Human lambda Fab from a phage library
B3: no binding (tested: 2 µM) (human INSR(28-956)-His10 [3]).

B4: M13-C06.G4.P.agly (antibody, human IgG4 S228P, kappa, V domains shown)
VH: EVQLLESGGGLVQPGGSLRLSCAASGFTFSIYRMQWVRQAPGKGLEWVSGISPSGGTTWYADSVKGRFTISRDNSKNTLYLQMNSLRAEDTAVYYCARWSGGSGYAFDIWGQGTMVTVSS
VL: DIQMTQSPLSLSASVGDRVTITCQASRDIRNYLNWYQQKPGKAPKLLIYDASSLQTGVPSRFGGSGSGTDFSFTIGSLQPEDIATYYCQQFDSLPHTFGQGTKLEIKR
notes: Aglycosylated human IgG4 (S228P, T299A, EU numbering), kappa; also called M13-C06_Ab; Eu-C06
In the case of B4, the “stoichiometry of binding (N)” value (sIGF-1R(1-903) [4]) is reported as 0.89, the “ΔH°” value (sIGF-1R(1-903) [4]) is reported as -11.3 kcal/mol and the “stoichiometry of binding (N)” value (sIGF-1R(1-903) [5]) is reported as 0.98. The “ΔH°” value (sIGF-1R(1-903) [5]) was -14.4 kcal/mol, the “stoichiometry of binding (N)” value (sIGF-1R(1-903) [6]) was 0.98 and the “ΔH°” value (sIGF-1R(1-903) [6]) was -20.1 kcal/mol. The “stoichiometry of binding (N)” value (sIGF-1R(1-903) [7]) was 0.97, the “ΔH°” value (sIGF-1R(1-903) [7]) was -29.2 kcal/mol and the “Inhibition of IGF-1 stimulated phosphorylation of IGF-1R (IC50 nM)” value [8] was under 0.13 nM. The “Inhibition of IGF-2 stimulated phosphorylation of IGF-1R (IC50 nM)” value [8] was under 0.63 nM, the “% IGF-1 inhibition upon antibody saturation” value (human IGF-1R(1-903)-Fc [9]) was 25% and the “% IGF-2 inhibition upon antibody saturation” value (human IGF-1R(1-903)-Fc [10]) was 16%.

B5: M13-C06 Fab (Fab, V domains shown)
VH: B4 VH
VL: DIQMTQSPLSLSASVGDRVTITCQASRDIRNYLNWYQQKPGKAPKLLIYDASSLQTGVPSRFGGSGSGTDFSFTIGSLQPEDIATYYCQQFDSLPHTFGQGTKLEIK
notes: as for B1
For B5, the “Biacore Relative RUmax” value (hIGF-1R-Fc mutant SD015 [11]) was 0.04.

B6: M14-C03.G4.P.agly (antibody, human IgG4 S228P, kappa, V domains shown)
VH: EVQLLESGGGLVQPGGSLRLSCAASGFTFSKYMMSWVRQAPGKGLEWVSYISPSGGLTWYADSVKGRFTISRDNSKNTLYLQMNSLRAEDTAVYYCARDGARGYGMDVWGQGTTVTVSS
VL: DIQMTQSPATLSLSPGERATLSCRASQSVSSYLAWYQQKPGQAPRLLIYDASNRATGIPARFSGSGSGTDFTLTISSLEPEDFAVYYCQQRSNWPPEVTFGPGTKVDIKR
notes: Aglycosylated human IgG4 (S228P, T299A), kappa; also called M14-C03_Ab
For B6, the “% IGF-1 inhibition upon antibody saturation” value (human IGF-1R(1-903)-Fc [9]) was 19%, the “% IGF-2 inhibition upon antibody saturation” value (human IGF-1R(1-903)-Fc [10]) was 21% and the binding result (hIGF-1R-Fc mutant SD015 [12]) was “no binding”. B6: no binding (hIGF-1R-Fc mutant SD110); no binding (hIGF-1R-Fc mutant SD113); no binding (hIGF-1R-Fc mutant SD102). B6: no binding (hIGF-1R-Fc mutant SD103); no binding (hIGF-1R-Fc mutant SD104); no binding (hIGF-1R-Fc mutant SD108). B6: no binding (hIGF-1R-Fc mutant SD109).

B7: M14-G11.G4.P.agly (antibody, human IgG4 S228P, kappa, V domains shown)
VH: EVQLLESGGGLVQPGGSLRLSCAASGFTFSNYPMYWVRQAPGKGLEWVSRISSSGGRTVYADSVKGRFTISRDNSKNTLYLQMNSLRAEDTAVYYCARDRWSRSAAEYGLGGYWGQGTLVTVSS
VL: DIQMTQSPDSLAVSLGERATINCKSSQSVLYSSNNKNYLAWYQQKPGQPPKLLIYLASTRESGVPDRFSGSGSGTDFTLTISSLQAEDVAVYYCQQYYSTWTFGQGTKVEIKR
notes: Aglycosylated human IgG4 (S228P, T299A), kappa; also called M14-G11_Ab; Biotin-G11
For B7, the “stoichiometry of binding (N)” value (sIGF-1R(1-903) [4]) was 0.9, the “ΔH°” value (sIGF-1R(1-903) [4]) was -6.7 kcal/mol and the “stoichiometry of binding (N)” value (sIGF-1R(1-903) [6]) was 0.91. For the same binder, the “ΔH°” value (sIGF-1R(1-903) [6]) was -26.6 kcal/mol, the “stoichiometry of binding (N)” value (sIGF-1R(1-903) [7]) was 0.7 and the “ΔH°” value (sIGF-1R(1-903) [7]) was -39.5 kcal/mol. The “% IGF-1 inhibition upon antibody saturation” value (human IGF-1R(1-903)-Fc [9]) was 1%, the “% IGF-2 inhibition upon antibody saturation” value (human IGF-1R(1-903)-Fc [10]) was 1% and the “EC50 (read off the curve)” value (human IGF-1R(1-903)-Fc [13]) was about 0.05 nM. The “IC50 (read off the curve)” value (human IGF-1R(1-903)-Fc [14]) was about 2 nM, the “IC50 (read off the curve)” value (human IGF-1R(1-903)-Fc [15]) was about 6 nM and the “IC50 (read off the curve)” value (human IGF-1R(1-903)-Fc [16]) was about 6 nM.

B8: M14-G11 Fab (Fab, V domains shown)
VH: B7 VH
VL: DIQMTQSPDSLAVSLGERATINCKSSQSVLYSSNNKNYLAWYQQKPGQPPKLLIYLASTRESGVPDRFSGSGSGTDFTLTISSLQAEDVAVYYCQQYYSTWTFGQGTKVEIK
notes: Human kappa Fab (phage library, or papain digest of the full-length antibody)
In the case of B8, the “fold loss in affinity against wild type” value (hIGF-1R-Fc mutant SD008) is reported as about 3 fold and the “fold loss in affinity against wild type” value (hIGF-1R-Fc mutant SD012) is reported as about 3 fold.

B9: M14-G11.G4.P (antibody, human IgG4, V domains shown)
VH: B7 VH
VL: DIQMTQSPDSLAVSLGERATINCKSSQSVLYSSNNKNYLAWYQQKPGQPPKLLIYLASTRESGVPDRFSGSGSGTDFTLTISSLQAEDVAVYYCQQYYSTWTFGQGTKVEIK
notes: Full-length human IgG4.P, kappa; also called M14.G11.P; G4 version of M14-G11
B9 was tested, and the “EC50 (read off the curve)” value (human IGF-1R(1-903)-Fc [17]) was about 0.05 nM.
